The series concerns the molecule itself. As to the kind of experiment: crystal structure; sitting drop vapor diffusion at 20 °C, 100 mM KH2PO4/citrate pH 4.0-5.0, PEG 300 35-50%; holo, NADP(H)-soaked (binary) and NADP+ + HMCA-soaked (ternary) crystals; dimer interface analysed with PISA.

This is an account of results in paper PMC4990313 (ACS Catalysis, 2013).

B1: double bond reductase from Nicotiana tabacum (NtDBR) (enzyme, UniProt Q9SLN8 1-343, looked up)
chain: MAEEVSNKQVILKNYVTGYPKESDMEIKNVTIKLKVPEGSNDVVVKNLYLSCDPYMRSRMRKIEGSYVESFAPGSPITGYGVAKVLESGDPKFQKGDLVWGMTGWEEYSIITPTQTLFKIHDKDVPLSYYTGILGMPGMTAYAGFHEVCSPKKGETVFVSAASGAVGQLVGQFAKMLGCYVVGSAGSKEKVDLLKSKFGFDEAFNYKEEQDLSAALKRYFPDGIDIYFENVGGKMLDAVLVNMKLYGRIAVCGMISQYNLEQTEGVHNLFCLITKRIRMEGFLVFDYYHLYPKYLEMVIPQIKAGKVVYVEDVAHGLESAPTALVGLFSGRNIGKQVVMVSRE
Take B1: the stoichiometry N (as a rule, the number of molecules, sites or subunits per partner or assembly) is 2.
